{"source": "paper PMC9601805", "about": "“Characterization of the Escherichia coli pyridoxal 5′‐phosphate homeostasis protein (YggS): Role of lysine residues in PLP binding and protein stability” (Protein Science : A Publication of the Protein Society, 2022)", "key": {"apo‐YggS": {"target": "T1, apo‐YggS (Escherichia coli, UniProt P67080)", "T1 construct": "made in house; host or cells: E. coli HMS174(DE3)", "experiment": "biochemical", "format": "binding", "conditions": "WT apo-YggS", "procedure": "Equilibrium binding analyses were carried out by measuring the decrease of protein intrinsic fluorescence observed upon the addition of increasing PLP concentrations to a fixed concentration of apo‐YggS (Figure 1b).\nDissociation constants were calculated from saturation curves obtained measuring the protein fluorescence emission intensity as a function of increasing PLP concentration. […] Fluorescence emission spectra were recorded from 310 to 450 nm upon excitation at 280 nm. Excitation and emission slits were set at 3 and 5 nm, respectively."}, "E. coli ΔyggS": {"test_system": "E. coli ΔyggS", "experiment": "4dPN sensitivity assay and complementation by YggS variants in trans", "format": "cell-based, Escherichia coli", "conditions": "20 μl of 25 mM 4dPN in central well, M9 minimal medium with 1 μM PN", "procedure": "Bacteria were grown in Luria‐Bertani (LB; Tryptone 10 g L^− 1, Yeast extract 5 g L^− 1, NaCl 10 g L^− 1) or M9 minimal medium (Cold Spring Harbor Protocols, Cold Spring Harbor, NY) at 37°C, unless otherwise specified. Growth media were solidified with agar (16 g L^− 1; Fisher Scientific) for the preparation of plates. 4dPN toxicity assays were performed on thin (20 ml) M9 minimal medium plates containing 0.4% glucose (carbon source), ampicillin (100 μg ml^−1), 1 μM PN, and 0.02% or 0.2% arabinose when appropriate.\nWild‐type yggS was amplified by PCR with primers DH596 and DH598 from E. coli BW25113 and cloned in pBAD24 using restriction sites SphI and NcoI to give pBY291.3. The pBY291.3 plasmid and its derivatives were then used as templates with the NEB Q5 Site‐Directed Mutagenesis Kit and the primer pairs indicated in Table S4 to introduce site‐directed residue mutant constructs. All constructs were verified by sequencing and transformed into E. coli wild‐type (BW25113) and ΔyggS (VDC6594) electrocompetent cells for use in physiological studies. Plasmid transformations were performed following standard procedures and protein expression from each construct was confirmed by SDS‐PAGE and western blot analysis.\nThree isolated colonies of each strain were inoculated into 5 ml LB Amp 200 μg ml^− 1 and incubated at 37°C and 200 rpm overnight. Overnight cultures were diluted 1:500 into 5 ml fresh LB Amp 200 μg ml^− 1 ± 0.02% or 0.2% arabinose and grown at 37°C, shaking. Once cultures reached midlog growth (OD600 of 0.4–0.7) samples were taken from each culture for western blot analysis (below) then cells were again incubated until stationary growth was reached (~6 hr). Cells were harvested by centrifugation then washed twice with and resuspended in 1x PBS. Optical density of washed cells was measured at 600 nm in 1 ml cuvettes (Fisher Scientific) using a BioSpec‐mini DNA/RNA/Protein analyzer (Shimadzu Biotech) and each strain was normalized to an OD600 of 0.006 in 3 ml 1x PBS. […]"}, "[1]": {"experiment": "Differential scanning fluorimetry (DSF), apparent Tm of YggS forms", "format": "physicochemical", "conditions": "for T m (°C) Apo +2 μM PLP: 2 μM protein + 2 μM (equimolar) PLP; for T m (°C) Apo + 300 μM PLP: 2 μM protein + 300 μM PLP; for T m (°C) Apo: apo-form, 2 μM protein, no PLP", "procedure": "Differential scanning fluorimetry (DSF) assays were performed on a Real Time PCR Instrument (CFX Connect Real Time PCR system, Bio‐Rad, Hercules, CA). In a typical experiment, 2 μM WT and variant apo‐YggS forms in 50 mM NaHEPES, pH 7.5, 50 mM NaCl, and Sypro Orange (5x, Thermo Scientific) were mixed with various ligands (total volume of 25 μl) in a 96‐well PCR plate. Fluorescence was measured from 25°C to 95°C in 0.4°C/30 s steps (excitation 450–490 nm; detection 560–580 nm). All samples were run in triplicate. Denaturation profiles were analyzed as described in Nardella et al.[40]"}, "[2]": {"experiment": "Covalent (Schiff base) PLP binding judged by absorption spectra", "conditions": "~416–420 nm band", "procedure": "Our strategy was to start from the K36A variant and gradually add further variations so as to obtain all possible combinations of double, triple, and quadruple variants. Variations of the last two residues at the C‐terminal end of the protein, K233 and K234, were always introduced together and are therefore considered as a single K233A/K234A variation.\nAll spectroscopic measurements were carried out at 20°C in 20 mM NaHEPES pH 7.5. UV–visible spectra were recorded with a Hewlett‐Packard 8453 diode‐array spectrophotometer. Far‐UV (190–250 nm) and Near‐UV–visible (250–500 nm) CD spectra were measured with a Jasco 710 spectropolarimeter equipped with a DP 520 processor using 0.1‐cm (far‐UV) or 1‐cm path length quartz cuvettes and results were expressed as ellipticity [Θ]. Absorption spectra of WT and variant forms were deconvoluted into their component bands using Metzler's band‐shape analysis method.[22]"}, "[3]": {"experiment": "PLP binding equilibrium of YggS WT and variant forms, intrinsic fluorescence change", "conditions": "E. coli YggS form 0.1 μM, 50 mM NaHEPES pH 7.6, 25°C, excitation 280 nm; mean ± SEM; read-out: K D (nM) of the PLP binding equilibrium", "procedure": "Analyses took advantage of YggS intrinsic fluorescence decrease observed upon binding of PLP. Dissociation constants were calculated from saturation curves obtained measuring the protein fluorescence emission intensity as a function of increasing PLP concentration. Fluorescence emission measurements were carried out at 25°C, in 50 mM NaHEPES buffer at pH 7.6 with a FluoroMax‐3 Jobin Yvon Horiba spectrofluorometer, using a 1‐cm path length quartz cuvette. All analyzed YggS forms were used at a final subunit concentration of 0.1 μM. Fluorescence emission spectra were recorded from 310 to 450 nm upon excitation at 280 nm. Excitation and emission slits were set at 3 and 5 nm, respectively. Emission fluorescence values between 330 and 340 nm were averaged and analyzed using the following quadratic equation to obtain K D value: (1) Frel=Finf−F0×PLP+[YggS]+KD−PLP+[YggS]+KD^2−4[YggS]PLP/2/[YggS]+F0"}, "apo‐eSHMT": {"target": "apo‐eSHMT (Escherichia coli, UniProt P0A825)", "sequence (P0A825 whole entry)": "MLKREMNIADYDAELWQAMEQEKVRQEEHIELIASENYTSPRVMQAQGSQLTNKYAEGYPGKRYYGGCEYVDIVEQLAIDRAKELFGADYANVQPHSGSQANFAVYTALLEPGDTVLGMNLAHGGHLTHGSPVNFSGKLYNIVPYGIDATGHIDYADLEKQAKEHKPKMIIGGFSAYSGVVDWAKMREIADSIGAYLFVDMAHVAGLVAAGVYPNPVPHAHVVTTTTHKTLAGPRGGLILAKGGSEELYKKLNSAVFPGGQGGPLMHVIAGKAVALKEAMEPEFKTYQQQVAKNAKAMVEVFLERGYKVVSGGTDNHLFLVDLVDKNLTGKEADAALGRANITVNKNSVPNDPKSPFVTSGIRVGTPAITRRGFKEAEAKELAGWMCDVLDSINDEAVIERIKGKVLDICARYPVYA", "conditions": "transfer to apo-SHMT", "procedure": "We set up a novel in vitro discontinuous assay in which PLP transfer from holo‐YggS to the apo‐form of eSHMT could be followed (see Section 4 for details). In this assay, the increase in SHMT activity is measured as PLP dissociates from holo‐YggS and binds to apo‐SHMT, forming the catalytically active holo‐SHMT. […] The binding kinetics of free PLP to either apo‐YggS or apo‐SHMT was measured by manually mixing 20 μM free PLP with 20 μM of protein, observing the formation of the internal aldimine at 420 nm.\nWT Holo‐YggS (20 μM with respect to PLP) was mixed with 20 μM apo‐eSHMT in 50 mM NaHEPES buffer at pH 7.6."}}}
{"molecule": "Cc1ncc(COP(=O)(O)O)c(C)c1O", "note": "[4dPNP]", "values": [{"measurement": "change in fluorescence emission attributable to binding", "setting": "apo‐YggS", "result": "could only be detected with PL and PNP"}]}
{"molecule": "Cc1ncc(CO)c(CO)c1O", "note": "[PN, pyridoxine]", "values": [{"measurement": "change in fluorescence emission attributable to binding", "setting": "apo‐YggS", "result": "could only be detected with PL and PNP"}]}
{"molecule": "Cc1ncc(CO)c(C)c1O", "note": "[4dPN, 4‐deoxypyridoxine, reference compound]", "values": [{"measurement": "4dPN sensitivity (ring of growth inhibition)", "setting": "E. coli ΔyggS", "result": "clear 4dPN sensitivity phenotype"}, {"measurement": "change in fluorescence emission attributable to binding", "setting": "apo‐YggS", "result": "could only be detected with PL and PNP"}]}
{"molecule": "K36A/K38A/K233A/K234A: E. coli YggS triple lysine variant (protein, left off: His-tag, C-terminal, state not stated, E. coli YggS triple lysine variant) MNDIAHNLAQVRDKISAAATRCGRSPEEITLLAVSATAPASAIAEAIDAGQRQFGENYVQEGVDKIRHFQELGVTGLEWHFIGPLQSNKSRLVAEHFDWCHTIDRLRIATRLNDQRPAELPPLNVLIQINISDENSKSGIQLAELDELAAAVAELPRLRLRGLMAIPAPESEYVRQFEVARQMAVAFAGLKTRYPHIDTLSLGMSDDMEAAIAAGSTMVRIGTAIFGARDYSAA", "values": [{"measurement": "T m (°C) Apo +2 μM PLP", "setting": "[1]", "result": "68.9 ± 0.1", "unit": "°C"}, {"measurement": "T m (°C) Apo + 300 μM PLP", "setting": "[1]", "result": "69.6 ± 0.1", "unit": "°C"}, {"measurement": "T m (°C) Apo", "setting": "[1]", "result": "68.8 ± 0.1", "unit": "°C"}, {"measurement": "capability to bind PLP covalently as a Schiff base", "setting": "[2]", "result": "lost the capability to bind PLP covalently"}]}
{"molecule": "K36A/K38A/K137A/K233A/K234A: E. coli YggS quadruple lysine variant (protein, left off: His-tag, C-terminal, state not stated, E. coli YggS quadruple lysine variant) MNDIAHNLAQVRDKISAAATRCGRSPEEITLLAVSATAPASAIAEAIDAGQRQFGENYVQEGVDKIRHFQELGVTGLEWHFIGPLQSNKSRLVAEHFDWCHTIDRLRIATRLNDQRPAELPPLNVLIQINISDENSASGIQLAELDELAAAVAELPRLRLRGLMAIPAPESEYVRQFEVARQMAVAFAGLKTRYPHIDTLSLGMSDDMEAAIAAGSTMVRIGTAIFGARDYSAA", "values": [{"measurement": "T m (°C) Apo +2 μM PLP", "setting": "[1]", "result": "68.8 ± 0.1", "unit": "°C"}, {"measurement": "T m (°C) Apo + 300 μM PLP", "setting": "[1]", "result": "69.1 ± 0.3", "unit": "°C"}, {"measurement": "T m (°C) Apo", "setting": "[1]", "result": "68.7 ± 0.1", "unit": "°C"}, {"measurement": "capability to bind PLP covalently as a Schiff base", "setting": "[2]", "result": "lost the capability to bind PLP covalently"}]}
{"molecule": "K36A/K137A/K233A/K234A: E. coli YggS triple lysine variant (protein, left off: His-tag, C-terminal, state not stated, E. coli YggS triple lysine variant) MNDIAHNLAQVRDKISAAATRCGRSPEEITLLAVSATKPASAIAEAIDAGQRQFGENYVQEGVDKIRHFQELGVTGLEWHFIGPLQSNKSRLVAEHFDWCHTIDRLRIATRLNDQRPAELPPLNVLIQINISDENSASGIQLAELDELAAAVAELPRLRLRGLMAIPAPESEYVRQFEVARQMAVAFAGLKTRYPHIDTLSLGMSDDMEAAIAAGSTMVRIGTAIFGARDYSAA", "values": [{"measurement": "T m (°C) Apo +2 μM PLP", "setting": "[1]", "result": "64.7 ± 0.1", "unit": "°C"}, {"measurement": "T m (°C) Apo + 300 μM PLP", "setting": "[1]", "result": "66.0 ± 0.1", "unit": "°C"}, {"measurement": "T m (°C) Apo", "setting": "[1]", "result": "64.6 ± 0.1", "unit": "°C"}]}
{"molecule": "K36A/K38A/K137A: E. coli YggS triple lysine variant (protein, left off: His-tag, C-terminal, state not stated, E. coli YggS triple lysine variant) MNDIAHNLAQVRDKISAAATRCGRSPEEITLLAVSATAPASAIAEAIDAGQRQFGENYVQEGVDKIRHFQELGVTGLEWHFIGPLQSNKSRLVAEHFDWCHTIDRLRIATRLNDQRPAELPPLNVLIQINISDENSASGIQLAELDELAAAVAELPRLRLRGLMAIPAPESEYVRQFEVARQMAVAFAGLKTRYPHIDTLSLGMSDDMEAAIAAGSTMVRIGTAIFGARDYSKK", "values": [{"measurement": "Kd", "setting": "[3]", "result": "43 ± 19", "unit": "nM"}, {"measurement": "T m (°C) Apo +2 μM PLP", "setting": "[1]", "result": "69.4 ± 0.1", "unit": "°C"}, {"measurement": "T m (°C) Apo + 300 μM PLP", "setting": "[1]", "result": "75.2 ± 1.2", "unit": "°C"}, {"measurement": "T m (°C) Apo", "setting": "[1]", "result": "68.9 ± 0.2", "unit": "°C"}, {"measurement": "PLP transfer kinetics compared with WT YggS", "setting": "apo‐eSHMT", "result": "faster and much more extensive transfer of PLP"}]}
{"molecule": "ΔK233/K234: E. coli YggS variant lacking the last two C-terminal residues K233 and K234 (protein, left off: His-tag, N-terminal, state not stated) MNDIAHNLAQVRDKISAAATRCGRSPEEITLLAVSKTKPASAIAEAIDAGQRQFGENYVQEGVDKIRHFQELGVTGLEWHFIGPLQSNKSRLVAEHFDWCHTIDRLRIATRLNDQRPAELPPLNVLIQINISDENSKSGIQLAELDELAAAVAELPRLRLRGLMAIPAPESEYVRQFEVARQMAVAFAGLKTRYPHIDTLSLGMSDDMEAAIAAGSTMVRIGTAIFGARDYS", "values": [{"measurement": "Kd", "setting": "[3]", "result": "2.8 ± 0.7", "unit": "nM"}, {"measurement": "T m (°C) Apo +2 μM PLP", "setting": "[1]", "result": "73.1 ± 0.3", "unit": "°C"}, {"measurement": "T m (°C) Apo + 300 μM PLP", "setting": "[1]", "result": "84.0 ± 0.4", "unit": "°C"}, {"measurement": "T m (°C) Apo", "setting": "[1]", "result": "61.4 ± 0.8", "unit": "°C"}, {"measurement": "capability to bind PLP covalently as a Schiff base", "setting": "[2]", "result": "able to bind PLP as a Schiff base"}]}
